Experimental findings from paper PMC3671127 are described below.

Assay [1] concerns the target HIV-1 integrase, wild type, fluorescently labelled (IN-mTFP1 and IN-mVenus) in virions (HIV-1) (UniProt P12497). In words: FRET or BRET; single virus FRET by acceptor photobleaching (TIRF microscopy) on fixed virions with IN-mTFP1 donor and IN-mVenus acceptor; FRET ratio = FD/FDA; virions produced in the presence of CX05045 (5-fold EC50).
Assay [2] shares this target. In words: FRET or BRET; single virus FRET by acceptor photobleaching (TIRF microscopy) on fixed virions with IN-mTFP1 donor and IN-mVenus acceptor; FRET ratio = FD/FDA, unity means no FRET; virions produced in the presence of DMSO. Background: Bioluminescence resonance energy transfer reports proximity on the nanometre scale.
The target is the same in assay [3]. Description: FRET or BRET; single virus FRET by acceptor photobleaching (TIRF microscopy) on fixed virions with IN-mTFP1 donor and IN-mVenus acceptor; FRET ratio = FD/FDA; virions produced in the presence of raltegravir (5-fold EC50).
The target in assay [4] is HIV-1 Pol polyprotein with a catalytically dead protease (sPol-PR_(D25N)) (HIV-1 (IIIB)). Description: AlphaScreen or HTRF; 33 nM GST-sPol-PR_(D25N) and 33 nM His-MBP-sPol-PR_(D25N) kept constant, CX05045 (raltegravir, DMSO as controls) titrated 1:10 from 100 uM; 25 mM Tris/HCl pH 7.5, 150 mM NaCl, 1 mM dithiothreitol, 1 mM MgCl2, 0.1% BSA, 0.1% Tween 20; overnight at 4°C, then glutathione donor and Ni-chelate acceptor beads 2 h at 23°C. For orientation: In Alpha technology, singlet oxygen from a donor bead excites a nearby acceptor bead.

For assay [5], the target named is HIV-1 integrase A128T (LEDGIN-resistant), fluorescently labelled (IN_(A128T)-mTFP1 and IN_(A128T)-mVenus) in virions (HIV-1). Description: FRET or BRET; single virus FRET by acceptor photobleaching (TIRF microscopy) on fixed virions with IN-mTFP1 donor and IN-mVenus acceptor; FRET ratio = FD/FDA; virions produced in the presence of CX05045 (5-fold EC50).
Assay [6] has the same target. In words: FRET or BRET; single virus FRET by acceptor photobleaching (TIRF microscopy) on fixed virions with IN-mTFP1 donor and IN-mVenus acceptor; FRET ratio = FD/FDA, unity means no FRET; virions produced in the presence of DMSO.

Turning to “HIV-1 integrase, wild type, fluorescently labelled (IN-mTFP1 and IN-mVenus) in virions (from UniProt P12497 1148-1435) (enzyme)”, in assay [1], the mean FRET ratio (CX05045) came out at 1.43. Also, the mean FRET ratio (DMSO) in assay [2] came to 1.25. The mean FRET ratio (raltegravir) in assay [3] was determined as 1.22.

For the substance “HIV-1 Pol polyprotein with a catalytically dead protease (sPol-PR_(D25N)) (natural protein)”, the EC50 of CX05045 for the enhancement of Pol-Pol multimerization in assay [4] came out at 8.7 nM.

With “HIV-1 integrase A128T (LEDGIN-resistant), fluorescently labelled (IN_(A128T)-mTFP1 and IN_(A128T)-mVenus) in virions (enzyme)”, the mean FRET ratio (CX05045) in assay [5] was 1.23. Further, in assay [6], the mean FRET ratio (DMSO) was 1.26.
